The results in this text go back to patent US20190161548A1 (published 2019).

Assay [1] has as its target T1, His-tagged soluble human PD-1 (human, UniProt Q15116 25-170).
T1 construct: also called hPD-1-His; shPD-1
The experiment in a line: ELISA; soluble human PD-1 coated; goat anti-human-Fcgamma-HRP, PICO chemiluminescent substrate. The source says: FIGS. 8A-8D show the results of ELISA studies measuring the binding of serially diluted binding molecules to human CTLA-4 and human PD-1. […] Goat anti-human-Fc-HRP (1:10,000) was employed as the secondary detection molecule to detect binding. FIGS. 8C-8D show the results of a study on the effect of altering orientations and binding domains on binding. […] Goat anti-human-Fcγ-HRP was employed as the secondary detection molecule to detect binding using PICO chemiluminescent substrate.
Goat anti-human-Fcγ-HRP was employed as the secondary detection molecule to detect binding using PICO chemiluminescent substrate.
(In an ELISA, binding on a coated surface is turned into a signal by an enzyme label.)

The target in assay [2] is T2, His-tagged soluble cynomolgus monkey CTLA-4 (cynomolgus monkey, UniProt G7PL88 36-161).
T2 construct: extracellular domain; also called Cyno CTLA-4
T2 sequence: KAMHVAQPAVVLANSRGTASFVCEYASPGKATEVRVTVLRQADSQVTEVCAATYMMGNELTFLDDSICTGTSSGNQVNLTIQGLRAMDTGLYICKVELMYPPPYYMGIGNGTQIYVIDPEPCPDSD
The experiment in a line: BIACORE (SPR); His-tagged soluble cynomolgus monkey CTLA-4 captured on anti-PentaHis, binding molecule 12.5-200 nM as analyte; avidity by separate ka/kd 1:1 fit. How it is done: (§1) Briefly, His-tagged soluble CTLA-4 (an extracellular portion of human or cynomolgus monkey CTLA-4 fused to a histidine-containing peptide) was captured on immobilized anti-PentaHis and then different concentrations (12.5-200 nM) of the CTLA-4 binding molecules were passed over the immobilized CTLA-4 proteins. The kinetics of binding were determined via BIACORE® analysis (affinity by 1:1 Langmuir binding model (simultaneous ka/kd); or avidity by separate ka/kd 1:1 fit).

Assay [3] has as its target T3, human CTLA-4 expressed on the cell surface (human, UniProt P16410 36-223).
T3 construct: also called huCTLA-4; CHO cells expressing human CTLA-4
T3 sequence: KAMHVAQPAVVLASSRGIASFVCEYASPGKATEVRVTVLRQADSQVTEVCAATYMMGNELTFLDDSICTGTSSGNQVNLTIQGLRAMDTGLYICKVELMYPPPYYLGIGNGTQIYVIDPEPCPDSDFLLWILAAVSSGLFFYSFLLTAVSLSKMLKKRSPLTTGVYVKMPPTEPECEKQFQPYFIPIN
The experiment in a line: FACS on Jurkat cells which express huCTLA-4 but not PD-1, anti-human Fc secondary. The text has this: Binding of the DART and TRIDENT molecules to human CTLA-4 was detected using anti-human FC secondary Ab (FACS).

Assay [4] addresses T2, His-tagged soluble cynomolgus monkey …. The experiment in a line: BIACORE (SPR); His-tagged soluble cynomolgus monkey CTLA-4 captured on anti-PentaHis, binding molecule 12.5-200 nM as analyte; affinity by 1:1 Langmuir binding model. As to the method:
as §1
For orientation: Surface plasmon resonance follows binding to a sensor surface in real time, without labels.

T1 sequence (Q15116 25-170 limits assumed): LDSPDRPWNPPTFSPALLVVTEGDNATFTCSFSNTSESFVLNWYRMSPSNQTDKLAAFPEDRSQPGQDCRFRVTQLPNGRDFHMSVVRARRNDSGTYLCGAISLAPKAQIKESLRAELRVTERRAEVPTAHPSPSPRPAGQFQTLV

B1: DART C (bispecific antibody)
chain 1: not shown
chain 2: EIVLTQSPATLSLSPGERATLSCRASESVDNYGMSFMNWFQQKPGQPPKLLIHAASNQGSGVPSRFSGSGSGTDFTLTISSLEPEDFAVYFCQQSKEVPYTFGGGTKVEIKGGGSGGGGQVQLVESGGGVVQPGRSLRLSCAASGFTFSSYTMHWVRQAPGKGLEWVTFISYDGSNKHYADSVKGRFTVSRDNSKNTLYLQMNSLRAEDTAIYYCARTGWLGPFDYWGQGTLVTVSSGGCGGGKVAACKEKVAALKEKVAALKEKVAALKE
notes: Four-chain Fc Region-containing diabody, two PD-1 sites (PD-1 mAb 6-ISQ) and two CTLA-4 sites (CTLA-4 mAb 3), IgG4 Fc, E/K-coils
For B1, the binding result in assay [1] is “binds”.

B2: DART D (bispecific antibody, human IgG4 S228P)
chain 1: EIVLTQSPATLSLSPGERATLSCRASESVDNYGMSFMNWFQQKPGQPPKLLIHAASNQGSGVPSRFSGSGSGTDFTLTISSLEPEDFAVYFCQQSKEVPYTFGGGTKVEIKGGGSGGGGQVQLVESGGGVVQPGRSLRLSCAASGFTFSSYTMHWVRQAPGKGLEWVTFISYDGSNKHYADSVKGRFTVSRDNSKNTLYLQMNSLRAEDTAIYYCARTGWLGPFDYWGQGTLVTVSSGGCGGGEVAACEKEVAALEKEVAALEKEVAALEKESKYGPPCPPCPAPEFLGGPSVFLFPPKPKDTLYITREPEVTCVVVDVSQEDPEVQFNWYVDGVEVHNAKTKPREEQFNSTYRVVSVLTVLHQDWLNGKEYKCKVSNKGLPSSIEKTISKAKGQPREPQVYTLPPSQEEMTKNQVSLTCLVKGFYPSDIAVEWESNGQPENNYKTTPPVLDSDGSFFLYSRLTVDKSRWQEGNVFSCSVMHEALHNHYTQKSLSLSLG
chain 2: not shown
notes: Four-chain Fc Region-containing diabody, two PD-1 sites (PD-1 mAb 6-ISQ) and two CTLA-4 sites (CTLA-4 mAb 3), IgG4 (YTE) Fc, E/K-coils
As to B2, the Kd in assay [2] amounted to 4.9 nM.

B3: PD-1 mAb 6 G4P (antibody, human IgG4 S228P, kappa, V domains shown)
VH: QVQLVQSGAEVKKPGASVKVSCKASGYSFTSYWMNWVRQAPGQGLEWIGVIHPSDSETWLDQKFKDRVTITVDKSTSTAYMELSSLRSEDTAVYYCAREHYGTSPFAYWGQGTLVTVSS
VL: EIVLTQSPATLSLSPGERATLSCRASESVDNYGMSFMNWFQQKPGQPPKLLIHAASNQGSGVPSRFSGSGSGTDFTLTISSLEPEDFAVYFCQQSKEVPYTFGGGTKVEIKR
notes: IgG4 with stabilized hinge, kappa light chain; also called the PD-1 antibody; parental anti-PD-1 antibody
The term EC50 denotes the concentration that produces a half-maximal response. On to B3, for which, in assay [3], the EC50 was determined as 6.56 nM.

B4: TRIDENT A (bispecific antibody, human IgG4 S228P, kappa)
chain 1: EIVLTQSPATLSLSPGERATLSCRASESVDNYGMSFMNWFQQKPGQPPKLLIHAASNQGSGVPSRFSGSGSGTDFTLTISSLEPEDFAVYFCQQSKEVPYTFGGGTKVEIKGGGSGGGGQVQLVQSGAEVKKPGASVKVSCKASGYSFTSYWMNWVRQAPGQGLEWIGVIHPSDSETWLDQKFKDRVTITVDKSTSTAYMELSSLRSEDTAVYYCAREHYGTSPFAYWGQGTLVTVSSGGCGGGEVAACEKEVAALEKEVAALEKEVAALEKESKYGPPCPPCPAPEFLGGPSVFLFPPKPKDTLYITREPEVTCVVVDVSQEDPEVQFNWYVDGVEVHNAKTKPREEQFNSTYRVVSVLTVLHQDWLNGKEYKCKVSNKGLPSSIEKTISKAKGQPREPQVYTLPPSQEEMTKNQVSLWCLVKGFYPSDIAVEWESNGQPENNYKTTPPVLDSDGSFFLYSRLTVDKSRWQEGNVFSCSVMHEALHNHYTQKSLSLSLG
chain 2: EIVLTQSPATLSLSPGERATLSCRASESVDNYGMSFMNWFQQKPGQPPKLLIHAASNQGSGVPSRFSGSGSGTDFTLTISSLEPEDFAVYFCQQSKEVPYTFGGGTKVEIKGGGSGGGGQVQLVQSGAEVKKPGASVKVSCKASGYSFTSYWMNWVRQAPGQGLEWIGVIHPSDSETWLDQKFKDRVTITVDKSTSTAYMELSSLRSEDTAVYYCAREHYGTSPFAYWGQGTLVTVSSGGCGGGKVAACKEKVAALKEKVAALKEKVAALKE
heavy: QVQLVESGGGVVQPGRSLRLSCAASGFTFSSYTMHWVRQAPGKGLEWVTFISYDGSNKHYADSVKGRFTVSRDNSKNTLYLQMNSLRAEDTAIYYCARTGWLGPFDYWGQGTLVTVSSASTKGPSVFPLAPCSRSTSESTAALGCLVKDYFPEPVTVSWNSGALTSGVHTFPAVLQSSGLYSLSSVVTVPSSSLGTKTYTCNVDHKPSNTKVDKRVESKYGPPCPPCPAPEFLGGPSVFLFPPKPKDTLYITREPEVTCVVVDVSQEDPEVQFNWYVDGVEVHNAKTKPREEQFNSTYRVVSVLTVLHQDWLNGKEYKCKVSNKGLPSSIEKTISKAKGQPREPQVYTLPPSQEEMTKNQVSLSCAVKGFYPSDIAVEWESNGQPENNYKTTPPVLDSDGSFFLVSRLTVDKSRWQEGNVFSCSVMHEALHNRYTQKSLSLSLG
light: not shown
B4 registered a Kd in assay [4] of 260 nM.
